Assay results reported in the supplement of paper PMC10567573.

B1: C8orf76 (parent)
chain: KLAEAYLNLGPALSAALASSQKQH

Variants of: B1
Experiment: protein stability index of a GFP-peptide fusion (GPS, HEK-293T) (PSI 1-6); higher = more stable
Details: c terminus: a fixed tail appended
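Further: lentivirally expressed fusions sorted by FACS into six bins by GFP to DsRed ratio, PSI derived from sequencing read proportions per bin multiplied by bin number.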

| Variant | protein stability index |
| --- | --- |
| KLAEAYLVLGPALSAALASSQKQH [N8V] | 3.33 |
| KLAEAYLWLGPALSAALASSQKQH [N8W] | 3.78 |
| KLAEAYLYLGPALSAALASSQKQH [N8Y] | 2.59 |
| KLAEAYLNAGPALSAALASSQKQH [L9A] | 4.3 |
| KLAEAYLNCGPALSAALASSQKQH [L9C] | 1.36 |
| KLAEAYLNDGPALSAALASSQKQH [L9D] | 3.5 |
| KLAEAYLNEGPALSAALASSQKQH [L9E] | 2.36 |
| KLAEAYLNFGPALSAALASSQKQH [L9F] | 2.56 |
| KLAEAYLNGGPALSAALASSQKQH [L9G] | 2.68 |
| KLAEAYLNHGPALSAALASSQKQH [L9H] | 2.26 |
| KLAEAYLNIGPALSAALASSQKQH [L9I] | 3.05 |
| KLAEAYLNKGPALSAALASSQKQH [L9K] | 3.11 |
| KLAEAYLNMGPALSAALASSQKQH [L9M] | 2.36 |
| KLAEAYLNNGPALSAALASSQKQH [L9N] | 2.89 |
| KLAEAYLNPGPALSAALASSQKQH [L9P] | 2.75 |
| KLAEAYLNQGPALSAALASSQKQH [L9Q] | 3.08 |
| KLAEAYLNRGPALSAALASSQKQH [L9R] | 2.61 |
| KLAEAYLNSGPALSAALASSQKQH [L9S] | 1.96 |
| KLAEAYLNTGPALSAALASSQKQH [L9T] | 2.62 |
| KLAEAYLNVGPALSAALASSQKQH [L9V] | 1.91 |
| KLAEAYLNWGPALSAALASSQKQH [L9W] | 3.02 |
| KLAEAYLNYGPALSAALASSQKQH [L9Y] | 2.06 |
| KLAEAYLNLAPALSAALASSQKQH [G10A] | 1.92 |
| KLAEAYLNLCPALSAALASSQKQH [G10C] | 2.66 |

| Variant | protein stability index |
| --- | --- |
| KLAEAYLNLDPALSAALASSQKQH [G10D] | 1.88 |
| KLAEAYLNLEPALSAALASSQKQH [G10E] | 1.87 |
| KLAEAYLNLFPALSAALASSQKQH [G10F] | 2.51 |
| KLAEAYLNLHPALSAALASSQKQH [G10H] | 1.96 |
| KLAEAYLNLIPALSAALASSQKQH [G10I] | 3.16 |
| KLAEAYLNLKPALSAALASSQKQH [G10K] | 2.26 |
| KLAEAYLNLMPALSAALASSQKQH [G10M] | 2.77 |
| KLAEAYLNLNPALSAALASSQKQH [G10N] | 2.08 |
| KLAEAYLNLPPALSAALASSQKQH [G10P] | 2.58 |
| KLAEAYLNLQPALSAALASSQKQH [G10Q] | 2.21 |
| KLAEAYLNLRPALSAALASSQKQH [G10R] | 1.94 |
| KLAEAYLNLSPALSAALASSQKQH [G10S] | 2.51 |
| KLAEAYLNLTPALSAALASSQKQH [G10T] | 2.12 |
| KLAEAYLNLVPALSAALASSQKQH [G10V] | 2.73 |
| KLAEAYLNLWPALSAALASSQKQH [G10W] | 1.61 |
| KLAEAYLNLYPALSAALASSQKQH [G10Y] | 1.86 |
| KLAEAYLNLGAALSAALASSQKQH [P11A] | 2.16 |
| KLAEAYLNLGCALSAALASSQKQH [P11C] | 2.49 |
| KLAEAYLNLGDALSAALASSQKQH [P11D] | 2.26 |
| KLAEAYLNLGEALSAALASSQKQH [P11E] | 2.52 |
| KLAEAYLNLGFALSAALASSQKQH [P11F] | 2.45 |
| KLAEAYLNLGHALSAALASSQKQH [P11H] | 1.84 |
| KLAEAYLNLGIALSAALASSQKQH [P11I] | 2.53 |
| KLAEAYLNLGKALSAALASSQKQH [P11K] | 1.94 |

| Variant | protein stability index |
| --- | --- |
| KLAEAYLNLGMALSAALASSQKQH [P11M] | 2.9 |
| KLAEAYLNLGQALSAALASSQKQH [P11Q] | 2.28 |
| KLAEAYLNLGRALSAALASSQKQH [P11R] | 3.7 |
| KLAEAYLNLGSALSAALASSQKQH [P11S] | 3.4 |
| KLAEAYLNLGYALSAALASSQKQH [P11Y] | 1.26 |
| KLAEAYLNLGPCLSAALASSQKQH [A12C] | 1.82 |
| KLAEAYLNLGPDLSAALASSQKQH [A12D] | 2.61 |
| KLAEAYLNLGPELSAALASSQKQH [A12E] | 1.96 |
| KLAEAYLNLGPFLSAALASSQKQH [A12F] | 2.73 |
| KLAEAYLNLGPGLSAALASSQKQH [A12G] | 1.6 |
| KLAEAYLNLGPHLSAALASSQKQH [A12H] | 2.14 |
| KLAEAYLNLGPILSAALASSQKQH [A12I] | 2.25 |
| KLAEAYLNLGPKLSAALASSQKQH [A12K] | 2.32 |
| KLAEAYLNLGPLLSAALASSQKQH [A12L] | 2.59 |
| KLAEAYLNLGPMLSAALASSQKQH [A12M] | 2.5 |
| KLAEAYLNLGPNLSAALASSQKQH [A12N] | 1.68 |
| KLAEAYLNLGPPLSAALASSQKQH [A12P] | 2.2 |
| KLAEAYLNLGPQLSAALASSQKQH [A12Q] | 1.73 |
| KLAEAYLNLGPRLSAALASSQKQH [A12R] | 2.29 |
| KLAEAYLNLGPSLSAALASSQKQH [A12S] | 2.35 |
| KLAEAYLNLGPTLSAALASSQKQH [A12T] | 1.26 |
| KLAEAYLNLGPVLSAALASSQKQH [A12V] | 3.4 |
| KLAEAYLNLGPWLSAALASSQKQH [A12W] | 1.59 |
| KLAEAYLNLGPYLSAALASSQKQH [A12Y] | 2.82 |

| Variant | protein stability index |
| --- | --- |
| KLAEAYLNLGPAASAALASSQKQH [L13A] | 1.99 |
| KLAEAYLNLGPACSAALASSQKQH [L13C] | 2.77 |
| KLAEAYLNLGPADSAALASSQKQH [L13D] | 3.15 |
| KLAEAYLNLGPAESAALASSQKQH [L13E] | 3.29 |
| KLAEAYLNLGPAFSAALASSQKQH [L13F] | 2.03 |
| KLAEAYLNLGPAGSAALASSQKQH [L13G] | 2.65 |
| KLAEAYLNLGPAHSAALASSQKQH [L13H] | 2.23 |
| KLAEAYLNLGPAISAALASSQKQH [L13I] | 3.23 |
| KLAEAYLNLGPAKSAALASSQKQH [L13K] | 2.36 |
| KLAEAYLNLGPAMSAALASSQKQH [L13M] | 1.8 |
| KLAEAYLNLGPANSAALASSQKQH [L13N] | 2.31 |
| KLAEAYLNLGPAPSAALASSQKQH [L13P] | 2.82 |
| KLAEAYLNLGPAQSAALASSQKQH [L13Q] | 2.76 |
| KLAEAYLNLGPARSAALASSQKQH [L13R] | 2.24 |
| KLAEAYLNLGPASSAALASSQKQH [L13S] | 2.54 |
| KLAEAYLNLGPATSAALASSQKQH [L13T] | 2.65 |
| KLAEAYLNLGPAVSAALASSQKQH [L13V] | 1.48 |
| KLAEAYLNLGPAWSAALASSQKQH [L13W] | 2.06 |
| KLAEAYLNLGPAYSAALASSQKQH [L13Y] | 2.14 |
| KLAEAYLNLGPALAAALASSQKQH [S14A] | 1.47 |
| KLAEAYLNLGPALDAALASSQKQH [S14D] | 2.06 |
| KLAEAYLNLGPALEAALASSQKQH [S14E] | 1.23 |
